± gives the uncertainty stated by the source.
Experiment: self-splicing fitness, log relative to wild type (ln ratio); higher = more splicing; Tetrahymena group I intron in knt gene, E. coli kanamycin selection, DiMSum; sequences stand for … in CUCUCU…GGAGGGAAAAGUUAUCAGGCAUGCACCUGGUAGCUAGUCUUUAAACCAAUAGAUUGCAUCGGUUUAAAAGGCAAGACCGUCAAAUUGCGGGAAAGGGGUCAACAGCCGUUCAGUACCAAGUCUCAGGGGAAACUUUGAGAUGGCCUUGCAAAGGGUAUGGUAAUAAGCUGACGGACAUGGUCCUAACCACGCAGCCAAGUCCUAAGUCAACAGAUCUUCUGUUGAUAUGGAUGCAGUUCACAGACUAAAUGUCGGUCGGGGAAGAUGUAUUCUUCUCAUAAGAUAUAGUCGGACCUCUCCUUAAUGGGAGCUAGCGGAUGAAGUGAUGCAACACUGGAGCCGCUGGGAACUAAUUUGUAUGCGAAAGUAUAUUGAUUAGUUUUGGAGUACUCGUGGUCG
Procedure, shortened: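 DiMSum derived fitness as the error-weighted combination of fold changes across replicates, kanamycin versus no kanamycin, normalised to wild type. E. coli BL21(DE3) held the library, which randomised all eight P1ex-region intron nucleotides within the knt kanamycin-resistance gene on pET-22b(+). Six replicate transformations grew overnight at 37°C or 30°C on LB agar with or without 25 μg/mL kanamycin, also containing 100 μg/mL carbenicillin, 50 μM IPTG and 0.2% rhamnose, and pooled colonies were amplicon-sequenced on an Illumina HiSeq 2500.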

Row | Sequence | self-splicing fitness (ln) (30 °C) | self-splicing fitness (ln) (37 °C)
1 | ACACAGCAAUAUUACGCUAA | -2.03 ± 0.1 | -1.19 ± 0.1
2 | GAGAAGCAAUAUUACGUAUA | -2.51 ± 0.14 | -1.71 ± 0.14
3 | CGGAAGCAAUAUUACGUCCU | 0.17 ± 0.12 | 0.626 ± 0.12
4 | CCUAAGCAAUAUUACGUAGA | -1.33 ± 0.08 | -0.523 ± 0.1
5 | CGAUAGCAAUAUUACGUUGA | -2.74 ± 0.18 | -1.3 ± 0.14
6 | UUCGAGCAAUAUUACGACUU | -3.32 ± 0.29 | -1.49 ± 0.29
7 | AAUUAGCAAUAUUACGUUUU | -1.98 ± 0.13 | -1.21 ± 0.14
8 | UUUAAGCAAUAUUACGCCGG | -0.192 ± 0.089 | 0.194 ± 0.11
9 | UGUAAGCAAUAUUACGCGGC | – | -1.13 ± 0.27
10 | UAAGAGCAAUAUUACGGGCG | -2.73 ± 0.16 | -2.29 ± 0.19
11 | UAAGAGCAAUAUUACGGGCC | -2.08 ± 0.32 | -0.897 ± 0.3
12 | GCGAAGCAAUAUUACGUCGG | -2.61 ± 0.21 | -0.565 ± 0.25
13 | CAUAAGCAAUAUUACGUACA | -3.09 ± 0.36 | -2.37 ± 0.19
14 | GGUAAGCAAUAUUACGCCCA | -1.68 ± 0.23 | -1.01 ± 0.27
15 | GGGUAGCAAUAUUACGAUAU | -0.506 ± 0.11 | -0.0772 ± 0.12
16 | UGGGAGCAAUAUUACGGUCG | -1.47 ± 0.12 | -0.961 ± 0.2
17 | CGCCAGCAAUAUUACGAAUA | -3.44 ± 0.34 | –

Row | Sequence | self-splicing fitness (ln) (30 °C) | self-splicing fitness (ln) (37 °C)
18 | AUUCAGCAAUAUUACGCGUC | -1.11 ± 0.17 | -0.615 ± 0.21
19 | CAAAAGCAAUAUUACGAACC | -1.63 ± 0.31 | -1.45 ± 0.28
20 | AGAUAGCAAUAUUACGAGCG | -0.464 ± 0.12 | -1.08 ± 0.15
21 | AAGGAGCAAUAUUACGAGUC | -3.2 ± 0.47 | -2.05 ± 0.23
22 | CGCUAGCAAUAUUACGACAG | -0.148 ± 0.059 | 0.297 ± 0.076
23 | UGGAAGCAAUAUUACGUGUU | -3.39 ± 0.16 | -2.7 ± 0.17
24 | GGGGAGCAAUAUUACGCGUG | -1.75 ± 0.13 | -1.96 ± 0.17
25 | GACAAGCAAUAUUACGCACA | -0.149 ± 0.086 | -0.296 ± 0.11
26 | CCUAAGCAAUAUUACGUUGG | -3.45 ± 0.27 | -2.96 ± 0.24
27 | GCACAGCAAUAUUACGAGGG | -1.9 ± 0.091 | -1.14 ± 0.14
28 | UCGAAGCAAUAUUACGUGCG | -1.07 ± 0.086 | -0.299 ± 0.1
29 | UUUAAGCAAUAUUACGGAAA | -2.33 ± 0.23 | -0.53 ± 0.23
30 | CUGCAGCAAUAUUACGAUGA | -3.75 ± 0.22 | -2.45 ± 0.23
31 | UCCCAGCAAUAUUACGUGGA | -3.08 ± 0.14 | -1.95 ± 0.15
32 | GACAAGCAAUAUUACGACUU | -0.00142 ± 0.071 | 0.381 ± 0.088
33 | ACAUAGCAAUAUUACGUAGC | -2.78 ± 0.13 | -2.04 ± 0.19
34 | GACGAGCAAUAUUACGGGGG | -3.65 ± 0.22 | -2.98 ± 0.3
